According to publication PMC12007569, “Molecular basis of pyruvate transport and inhibition of the human mitochondrial pyruvate carrier” (Science Advances, 2025):

Target: T1, human MPC1L/MPC2 heterodimer (Homo sapiens, UniProt P0DKB6;O95563)
T1 construct: MPC1L, human, wild-type cDNA, UniProt P0DKB6; MPC2, human, wild-type cDNA, UniProt O95563; Heterodimer formed beforehand (co-expressed and co-purified) and then mixed with the nanobody or the Pro-macrobody; also called hMPC1L/MPC2; hMPC1L/2 heterodimer; source: S. cerevisiae W303-1B, purified from mitochondria (LMNG, Nickel Sepharose, on-column TEV digestion); not shown: His tag, C-terminal, …
Test: pull-down; 75 μg hMPC1L/MPC2 incubated at a stoichiometric ratio with each nanobody for 1 hour at 4°C, then Ni-NTA Superflow resin 1 hour at 4°C; washed with buffer B, eluted with 250 mM imidazole; fractions on SDS-PAGE
Conditions: both partners purified

T1 sequence (P0DKB6 whole entry, chain 1 of 2): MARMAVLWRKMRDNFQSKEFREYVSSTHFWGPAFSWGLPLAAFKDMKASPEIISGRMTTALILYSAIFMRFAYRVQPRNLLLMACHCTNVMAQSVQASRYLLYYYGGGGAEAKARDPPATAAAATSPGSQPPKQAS
T1 sequence (O95563 whole entry, chain 2 of 2): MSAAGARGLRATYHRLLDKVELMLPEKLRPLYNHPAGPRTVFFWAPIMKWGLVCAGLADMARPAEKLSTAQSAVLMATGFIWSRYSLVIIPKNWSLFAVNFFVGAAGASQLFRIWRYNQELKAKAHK

B1: nanobody CA19425 (VHH)
VHH: QVQLVESGGGLVQAGGSLRLSCAASGRTFSAYGISTYTMGWFRQAPGKEREFVAAIGRDSGFTYYEDSVKGRFTINADNAENTVYLQMNSLKPEDTAVYYCAASSYYGRPNVDLMAYWGKGTQVTVPP
notes: as the nanobody part of m4, held in the PMb chain of the deposited entries (modelled residues 4 to 131); One of six nanobodies (four families); also called MPC2-specific nanobody; source: from a phage display library (pMESy4) of a llama immunised with hMPC1L/MPC2 proteoliposomes
B1: binds.
